Measurements as given in publication PMC9741652, “CRL2^ZER1/ZYG11B recognizes small N-terminal residues for degradation” (Nature Communications, 2022).
Residue numbers refer to the chain shown, from its start. Names and notes keep the numbering of the source. Blank lines part the entries; values can stand above or below the binder they belong to.

What was measured:
[1] = target: ZYG11B (residues 490–728), Q9C0D3; test: ITC; conditions: chain shown with the change;; parent: 2.5 µM
[2] = target: T1, SFLHVGQD peptide; test: ITC; conditions: chain shown with the change;; parent: 1.3
T1 chain: SFLHVGQD

Sequence of ZYG11B (residues 490–728), Q9C0D3 (Q9C0D3 other isoform, or with tags, fused parts or gaps): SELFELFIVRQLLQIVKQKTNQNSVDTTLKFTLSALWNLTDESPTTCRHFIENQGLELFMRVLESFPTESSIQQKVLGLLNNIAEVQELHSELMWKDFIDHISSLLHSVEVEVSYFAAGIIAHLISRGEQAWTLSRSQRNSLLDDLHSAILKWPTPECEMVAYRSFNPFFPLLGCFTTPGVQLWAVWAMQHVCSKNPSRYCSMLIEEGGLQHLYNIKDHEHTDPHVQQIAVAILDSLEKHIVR

Kd [1]: > 100 µM
Binder: VFLHVGQD [GFLHVGQD peptide G1V]

Kd [2]: > 100 µM
B1: ZER1 (residues 469–766), Q7Z7L7 D556A (protein)
chain: MEELEELEFQYRRVNELLLSILNPTRQDESIQRIAVHLCNALVCQVDNDHKEAVGKMGFVVTMLKLIQKKLLDKTCDQVMEFSWSALWNITAETPDNCEMFLNFNGMKLFLDCLKEFPEKQELHRNMLGLLGNVAEVKELRPQLMTSQFISVFSNLLESKADGIEVSYNACGVLSHIMFDGPEAWGVCEPQREEVEERMWAAIQSWDINSRRNINYRSFEPILRLLPQGISPVSQHWATWALYNLVSVYPDKYCPLLIKEGGMPLLRDIIKMATARQETKEMARKVIEHCSNFKEENMDTSR

Kd [2]: > 100 µM
B2: ZER1 (residues 469–766), Q7Z7L7 E600A (protein)
chain: B1 chain with A92D, E136A
